Experimental data from patent US20220298216A1 (SYRACUSE UNIVERSITY, published 2022).
Non-standard residues stand in square brackets, D forms with d. No end group written: not given here. NMeF = CN[C@@H](Cc1ccccc1)C(=O)O; NMeL = CN[C@@H](CC(C)C)C(=O)O; NMeS = CN[C@@H](CO)C(=O)O; Dap = NC[C@H](N)C(=O)O; Sar = CNCC(=O)O

T1: human ghrelin O-acyltransferase (hGOAT) (human, UniProt Q96T53 1-435, limits assumed)
T1 sequence (looked up): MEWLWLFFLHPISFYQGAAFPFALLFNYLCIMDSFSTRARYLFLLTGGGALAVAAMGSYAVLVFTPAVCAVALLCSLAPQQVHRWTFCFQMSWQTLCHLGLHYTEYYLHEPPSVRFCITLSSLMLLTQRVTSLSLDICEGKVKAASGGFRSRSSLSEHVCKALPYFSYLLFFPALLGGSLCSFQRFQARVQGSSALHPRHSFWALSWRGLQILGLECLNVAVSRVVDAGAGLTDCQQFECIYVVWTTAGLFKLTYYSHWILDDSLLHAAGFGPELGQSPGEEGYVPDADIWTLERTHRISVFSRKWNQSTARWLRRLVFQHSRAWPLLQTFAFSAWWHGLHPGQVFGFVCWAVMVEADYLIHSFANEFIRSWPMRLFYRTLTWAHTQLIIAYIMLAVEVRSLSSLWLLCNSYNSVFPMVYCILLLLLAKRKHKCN


These molecules were tested against T1, human ghrelin O-acyltransferase (hGOAT) (assay: cell-based or functional assay).

Molecule | IC50 (µM), inhibitor potency against hGOAT [µM]
SarSDapN·MeF (peptide) | 1.5
GS[Dap]F[NMeL] [GSDapFN·MeL] | 0.062
GS[Dap]FL [GSDapFL] | 0.14
[Sar]S[Dap]FL [SarSDapFL] | 0.088
GS[Dap][NMeF]L [GSDapN·MeFL] | 0.097
G[NMeS][Dap]FL [GN·MeSDapFL] | > 100
[Sar]S[Dap][NMeF][NMeL] [SarSDapN·MeFN·MeL] | 6

Each molecule was assayed against GOAT (human) (UniProt Q96T53) (assay: GOAT inhibition assay).

Molecule | IC50 [nM]
Ac-SDapFL | > 100000
GSDap | > 100000
GSDapF | 1200
GS[Dap]FLS | 74
SDapFL | > 100000

Each molecule was assayed against ghrelin receptor (GHS-R1a) (Homo sapiens (Human)) (UniProt Q92847) (assay: competition binding assay on the ghrelin receptor, IC50).
Chain of ghrelin receptor (GHS-R1a) (Homo sapiens (Human)) (Q92847 whole entry, form in doubt): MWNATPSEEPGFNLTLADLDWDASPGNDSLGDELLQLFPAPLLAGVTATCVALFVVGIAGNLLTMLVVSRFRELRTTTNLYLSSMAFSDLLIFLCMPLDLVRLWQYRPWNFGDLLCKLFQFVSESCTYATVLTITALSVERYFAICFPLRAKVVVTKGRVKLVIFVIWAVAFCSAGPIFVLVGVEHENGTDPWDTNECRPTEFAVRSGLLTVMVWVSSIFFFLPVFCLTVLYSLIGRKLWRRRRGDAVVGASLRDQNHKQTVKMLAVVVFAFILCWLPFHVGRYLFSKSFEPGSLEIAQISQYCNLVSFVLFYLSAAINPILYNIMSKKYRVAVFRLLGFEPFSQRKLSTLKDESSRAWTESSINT

Molecule | fold loss in binding affinity (IC50) against the unsubstituted peptide [fold]
ghrelin-derived peptide with a sarcosine substitution at the G1 position | > 25
